Patent US20040001842A1
Values belong to the molecule of their own block, whether it stands above or below them.

Experiments:
[1] = biological target: human CCK-B/gastrin receptor (human) (UniProt P32239); assay: 125I-labelled serum injected into nude mice with C170HM2 liver xenografts, CPM/g
[2] = biological target: CCK-B/gastrin receptor on AR42J cells (rat pancreatic adenocarcinoma) (rat) (UniProt P30553); assay: radioligand inhibition on AR42J cells, GnRH against 125I-hG17
[3] = biological target: affinity purified rabbit Anti-GRE11 antibodies; assay: quantitative immunofluorescence on H69 cells, peptide as inhibitor, relative to GnRH
[4] = biological target: Affinity purified rabbit anti-GRE1 antibodies; assay: inhibition ELISA, mixture of GRE1 EPT and Ser spacer in solution against GRE1-Ser-BSA on the plate
[5] = biological target: affinity purified rabbit Anti-GRE11 antibodies; assay: quantitative immunofluorescence on H69 cells, 1:1 mixture of GRE1 and GRE6 as inhibitor, relative to GnRH
[6] = biological target: Affinity purified rabbit anti-GRE1 antibodies; assay: inhibition ELISA, peptide in solution against GRE1-Ser-BSA on the plate

Chain of UniProt P30553 (P30553 whole entry): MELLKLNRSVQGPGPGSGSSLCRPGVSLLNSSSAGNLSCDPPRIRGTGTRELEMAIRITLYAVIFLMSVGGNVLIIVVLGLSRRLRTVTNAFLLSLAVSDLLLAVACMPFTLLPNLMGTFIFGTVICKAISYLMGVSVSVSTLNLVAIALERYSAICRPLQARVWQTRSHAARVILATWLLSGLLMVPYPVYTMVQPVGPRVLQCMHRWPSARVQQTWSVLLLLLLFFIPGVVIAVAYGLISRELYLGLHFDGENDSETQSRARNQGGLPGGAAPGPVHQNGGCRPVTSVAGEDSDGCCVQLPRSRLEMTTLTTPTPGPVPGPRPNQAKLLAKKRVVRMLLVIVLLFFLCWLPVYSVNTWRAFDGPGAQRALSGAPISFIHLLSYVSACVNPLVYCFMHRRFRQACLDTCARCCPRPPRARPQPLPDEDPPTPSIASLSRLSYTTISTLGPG

- liver tumor/liver ratio of radiolabel [1]: 1
Molecule: normal rabbit serum

- % inhibition of 125I-hG17 binding [2]: 6%
Molecule: gonadotropin releasing hormone (from UniProt P01148 24-33) (peptide)

- percent inhibition of antibody binding [3]: 84%
Molecule: MELLKLNRSVQGTGPGPGASLC [GRE11 peptide]

- % inhibition [4]: 60%
- percent inhibition of antibody binding [3]: 57%
- percent inhibition of antibody binding [5]: 49%
- % inhibition [6]: 60%
Molecule: KLNRSVQGTGPGPGASL [GRE1 EPT peptide]

- percent inhibition of antibody binding [3]: 4%
Molecule: MELLKLNRSVQGC [GRE6 peptide]
